Experiments:
trastuzumab [1] = test: ELISA Kit B (HER2 capture, anti-human IgG Fc detection) of trastuzumab 0.5 ug/mL pre-bound with ADA; trastuzumab:ADA 1:10
trastuzumab [2] = test: ELISA Kit A (anti-idiotype capture) of trastuzumab 50 ug/mL pre-bound with ADA; trastuzumab:ADA 5:1
trastuzumab [3] = test: ELISA Kit A (anti-idiotype capture) of trastuzumab 0.5 ug/mL pre-bound with ADA; trastuzumab:ADA 1:100
trastuzumab [4] = test: ELISA Kit B (HER2 capture, anti-human IgG Fc detection) of trastuzumab 0.5 ug/mL pre-bound with ADA; trastuzumab:ADA 10:1
trastuzumab [5] = test: ELISA Kit B (HER2 capture, anti-human IgG Fc detection) of trastuzumab 0.5 ug/mL pre-bound with ADA; trastuzumab:ADA 1:1
trastuzumab [6] = test: ELISA Kit A (anti-idiotype capture) of trastuzumab 50 ug/mL pre-bound with ADA; trastuzumab:ADA 1:1
trastuzumab [7] = test: ELISA Kit A (anti-idiotype capture) of trastuzumab 0.5 ug/mL pre-bound with ADA; trastuzumab:ADA 1:10
trastuzumab [8] = test: ELISA Kit A (anti-idiotype capture) of trastuzumab 0.5 ug/mL pre-bound with ADA; trastuzumab:ADA 5:1
trastuzumab [9] = test: ELISA Kit A (anti-idiotype capture) of trastuzumab 0.5 ug/mL pre-bound with ADA; trastuzumab:ADA 1:2
trastuzumab [10] = test: ELISA Kit A (anti-idiotype capture) of trastuzumab 50 ug/mL pre-bound with ADA; trastuzumab:ADA 100:1
trastuzumab [11] = test: ELISA Kit A (anti-idiotype capture) of trastuzumab 0.5 ug/mL pre-bound with ADA; trastuzumab:ADA 10:1
trastuzumab [12] = test: method not stated; affinity listed for the purchased ADA
trastuzumab [13] = test: ELISA Kit A (anti-idiotype capture) of trastuzumab 0.5 ug/mL pre-bound with ADA; trastuzumab:ADA 1:50
trastuzumab [14] = test: ELISA Kit A (anti-idiotype capture) of trastuzumab 50 ug/mL pre-bound with ADA; trastuzumab:ADA 10:1
trastuzumab [15] = test: cell-based or functional assay
trastuzumab [16] = test: ELISA Kit A (anti-idiotype capture) of trastuzumab 0.5 ug/mL pre-bound with ADA; trastuzumab:ADA 1:5
trastuzumab [17] = test: ELISA Kit B (HER2 capture, anti-human IgG Fc detection) of trastuzumab 0.5 ug/mL pre-bound with ADA; trastuzumab:ADA 1:100
trastuzumab [18] = test: ELISA Kit A (anti-idiotype capture) of trastuzumab 0.5 ug/mL pre-bound with ADA; trastuzumab:ADA 1:1

Substance | Accuracy (%) Kit B (trastuzumab [1]) [%] | Accuracy (%) ELISA (trastuzumab [2]) [%] | Accuracy (%) Kit B (trastuzumab [4]) [%] | Accuracy (%) Kit B (trastuzumab [5]) [%] | Accuracy (%) ELISA (trastuzumab [6]) [%] | Accuracy (%) ELISA (trastuzumab [8]) [%] | Accuracy (%) ELISA (trastuzumab [10]) [%] | Accuracy (%) ELISA (trastuzumab [11]) [%] | Accuracy (%) ELISA (trastuzumab [14]) [%] | Accuracy (%) nSMOL; trastuzumab 0.5 ug/mL; trastuzumab:ADA 1:1 (trastuzumab [15]) [%] | Accuracy (%) nSMOL; trastuzumab 0.5 ug/mL; trastuzumab:ADA 1:2 (trastuzumab [15]) [%] | Accuracy (%) nSMOL; trastuzumab 0.5 ug/mL; trastuzumab:ADA 1:5 (trastuzumab [15]) [%] | Accuracy (%) nSMOL; trastuzumab 0.5 ug/mL; trastuzumab:ADA 1:10 (trastuzumab [15]) [%] | Accuracy (%) nSMOL; trastuzumab 0.5 ug/mL; trastuzumab:ADA 1:50 (trastuzumab [15]) [%] | Accuracy (%) nSMOL; trastuzumab 0.5 ug/mL; trastuzumab:ADA 1:100 (trastuzumab [15]) [%] | Accuracy (%) nSMOL; trastuzumab 0.5 ug/mL; trastuzumab:ADA 5:1 (trastuzumab [15]) [%] | Accuracy (%) nSMOL; trastuzumab 0.5 ug/mL; trastuzumab:ADA 10:1 (trastuzumab [15]) [%] | Accuracy (%) nSMOL; trastuzumab 50 ug/mL; trastuzumab:ADA 1:1 (trastuzumab [15]) [%] | Accuracy (%) nSMOL; trastuzumab 50 ug/mL; trastuzumab:ADA 5:1 (trastuzumab [15]) [%] | Accuracy (%) nSMOL; trastuzumab 50 ug/mL; trastuzumab:ADA 10:1 (trastuzumab [15]) [%] | also measured
HCA176 (antibody) | 3.93 | 72.1 | 101 | 36.1 | 57.3 | 98 | 84.6 | 116 | 69.6 | 99.9 | 93.4 | 101 | 89.1 | 86.6 | 88.7 | 93.3 | 106 | 94.8 | 96.7 | 104 | Accuracy (%) ELISA (trastuzumab [3]): 82.6%; Accuracy (%) ELISA (trastuzumab [7]): 76.6%; Accuracy (%) ELISA (trastuzumab [9]): 75.2%; Kd (trastuzumab [12]): 0.4 nM; Accuracy (%) ELISA (trastuzumab [13]): 73.1%; Accuracy (%) nSMOL; trastuzumab 50 ug/mL; trastuzumab:ADA 100:1 (trastuzumab [15]): 94.7%; Accuracy (%) nSMOL; trastuzumab first immobilized on Protein A; trastuzumab:ADA 1:1 (trastuzumab [15]): 102%; Accuracy (%) nSMOL; trastuzumab first immobilized on Protein A; trastuzumab:ADA 5:1 (trastuzumab [15]): 98.3%; Accuracy (%) nSMOL; trastuzumab first immobilized on Protein A; trastuzumab:ADA 10:1 (trastuzumab [15]): 102%; Accuracy (%) nSMOL; trastuzumab first immobilized on Protein A; trastuzumab:ADA 100:1 (trastuzumab [15]): 93.5%; Accuracy (%) ELISA (trastuzumab [16]): 75.4%; Accuracy (%) Kit B (trastuzumab [17]): 11.7%; Accuracy (%) ELISA (trastuzumab [18]): 78.7%
HCA177 (antibody) | 0.962 | 92 | 97.4 | 46 | 84.5 | 112 | 98 | 103 | 85.3 | 96.1 | 84.4 | 78.7 | 81 | 89.5 | 74.1 | 98.7 | 98.4 | 88 | 99.4 | 103 | Accuracy (%) ELISA (trastuzumab [3]): 106%; Accuracy (%) ELISA (trastuzumab [7]): 108%; Accuracy (%) ELISA (trastuzumab [9]): 99.9%; Kd (trastuzumab [12]): 0.02 nM; Accuracy (%) ELISA (trastuzumab [13]): 112%; Accuracy (%) nSMOL; trastuzumab 50 ug/mL; trastuzumab:ADA 100:1 (trastuzumab [15]): 96.2%; Accuracy (%) nSMOL; trastuzumab first immobilized on Protein A; trastuzumab:ADA 1:1 (trastuzumab [15]): 89.2%; Accuracy (%) nSMOL; trastuzumab first immobilized on Protein A; trastuzumab:ADA 5:1 (trastuzumab [15]): 97.3%; Accuracy (%) nSMOL; trastuzumab first immobilized on Protein A; trastuzumab:ADA 10:1 (trastuzumab [15]): 103%; Accuracy (%) nSMOL; trastuzumab first immobilized on Protein A; trastuzumab:ADA 100:1 (trastuzumab [15]): 94.7%; inhibitory effect on quantification values (nSMOL), ratio 1:1 (trastuzumab [15]): 10%; Accuracy (%) ELISA (trastuzumab [16]): 99.4%; Accuracy (%) ELISA (trastuzumab [18]): 110%
MAB11130 (antibody) | 1.36 | 72.8 | 88.9 | 3.69 | 2.75 | 96.9 | 83.5 | 102 | 74.2 | 102 | 97.8 | 108 | 109 | 115 | 100 | 103 | 105 | 102 | 105 | 110 | Accuracy (%) nSMOL; trastuzumab 50 ug/mL; trastuzumab:ADA 100:1 (trastuzumab [15]): 102%; Accuracy (%) nSMOL; trastuzumab first immobilized on Protein A; trastuzumab:ADA 1:1 (trastuzumab [15]): 96.2%; Accuracy (%) nSMOL; trastuzumab first immobilized on Protein A; trastuzumab:ADA 5:1 (trastuzumab [15]): 108%; Accuracy (%) nSMOL; trastuzumab first immobilized on Protein A; trastuzumab:ADA 10:1 (trastuzumab [15]): 105%; Accuracy (%) nSMOL; trastuzumab first immobilized on Protein A; trastuzumab:ADA 100:1 (trastuzumab [15]): 109%; Accuracy (%) Kit B (trastuzumab [17]): 4.49%; Accuracy (%) ELISA (trastuzumab [18]): 0.632%
HCA168 (Fab) | 6.4 | 66.8 | 95.5 | 42.4 | 81.4 | 102 | 84.9 | 95.2 | 84.4 | 106 | 102 | 93 | 107 | 86 | 84.8 | 113 | 109 | 92.9 | 92.8 | 102 | Accuracy (%) ELISA (trastuzumab [3]): 72.2%; Accuracy (%) ELISA (trastuzumab [7]): 62.2%; Accuracy (%) ELISA (trastuzumab [9]): 82.1%; Kd (trastuzumab [12]): 0.02 nM; Accuracy (%) ELISA (trastuzumab [13]): 64.5%; Accuracy (%) nSMOL; trastuzumab 50 ug/mL; trastuzumab:ADA 100:1 (trastuzumab [15]): 89.5%; Accuracy (%) nSMOL; trastuzumab first immobilized on Protein A; trastuzumab:ADA 1:1 (trastuzumab [15]): 94.5%; Accuracy (%) nSMOL; trastuzumab first immobilized on Protein A; trastuzumab:ADA 5:1 (trastuzumab [15]): 94.3%; Accuracy (%) nSMOL; trastuzumab first immobilized on Protein A; trastuzumab:ADA 10:1 (trastuzumab [15]): 101%; Accuracy (%) nSMOL; trastuzumab first immobilized on Protein A; trastuzumab:ADA 100:1 (trastuzumab [15]): 107%; Accuracy (%) ELISA (trastuzumab [16]): 67.7%; Accuracy (%) Kit B (trastuzumab [17]): 3.32%; Accuracy (%) ELISA (trastuzumab [18]): 84.1%
